Here are results for five molecules from paper PMC10397247.

Holding throughout (experiment): two-hybrid library CCNG1;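 further: natural log of median RNA to DNA barcode read ratio; higher means stronger binding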
The target of one test is T1, O8-bN.
T1 chain: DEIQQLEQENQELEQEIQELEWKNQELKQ

The target in the next test is T2, O6-bN.
T2 chain: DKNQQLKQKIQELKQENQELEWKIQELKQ

Another test addresses T3, O7-bN.
T3 chain: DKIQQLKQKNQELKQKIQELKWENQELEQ

The next test deals with T4, O9-bN.
T4 chain: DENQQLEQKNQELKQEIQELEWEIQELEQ

The target of another test is T5, O5-bN.
T5 chain: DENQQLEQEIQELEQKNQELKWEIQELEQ

The next test deals with T6, O3-bN.
T6 chain: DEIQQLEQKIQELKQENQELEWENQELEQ

A further test concerns the target T7, O4-bN.
T7 chain: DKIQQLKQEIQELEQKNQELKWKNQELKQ

The next test has as its target T8, O2-bN.
T8 chain: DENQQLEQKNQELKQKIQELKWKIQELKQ

The target of another test is T9, P7bHq.
T9 chain: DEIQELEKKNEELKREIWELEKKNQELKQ

A further test has as its target T10, P8bHq.
T10 chain: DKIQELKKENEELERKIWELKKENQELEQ

The target of another test is T11, P9bHq.
T11 chain: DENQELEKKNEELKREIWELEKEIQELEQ

Another test addresses T12, 4H2702-bN.
T12 chain: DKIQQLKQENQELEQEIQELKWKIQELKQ

The target of the next test is T13, 4H953-bN.
T13 chain: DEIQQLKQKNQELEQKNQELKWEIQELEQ

A further test has as its target T14, 4H683-bN.
T14 chain: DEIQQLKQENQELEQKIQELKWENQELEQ

Another test addresses T15, 4H3010-bN.
T15 chain: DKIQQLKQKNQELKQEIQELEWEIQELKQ

A further test addresses T16, 4H3926-bN.
T16 chain: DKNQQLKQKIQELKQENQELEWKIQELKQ

Another test concerns the target T17, 4H855-bN.
T17 chain: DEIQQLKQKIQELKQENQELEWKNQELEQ

A further test has as its target T18, 4H797-bN.
T18 chain: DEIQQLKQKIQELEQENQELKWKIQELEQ

A further test addresses T19, 4H918-bN.
T19 chain: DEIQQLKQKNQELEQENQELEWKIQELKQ

The target of a further test is T20, 4H575-bN.
T20 chain: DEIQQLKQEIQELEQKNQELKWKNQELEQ

In the next test the target is T21, 4H968-bN.
T21 chain: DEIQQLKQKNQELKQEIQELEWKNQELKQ

The target of another test is T22, 4H3427-bN.
T22 chain: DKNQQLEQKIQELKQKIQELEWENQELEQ

A further test has as its target T23, 4H780-bN.
T23 chain: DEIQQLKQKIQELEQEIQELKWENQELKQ

A further test concerns the target T24, 4H4073-bN.
T24 chain: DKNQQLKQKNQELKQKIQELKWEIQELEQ

In a further test the target is T25, 4H3112-bN.
T25 chain: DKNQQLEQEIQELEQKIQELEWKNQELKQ

For the next test, the target named is T26, 4H754-bN.
T26 chain: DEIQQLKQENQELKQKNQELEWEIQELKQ

For the next test, the target named is T27, 4H346-bN.
T27 chain: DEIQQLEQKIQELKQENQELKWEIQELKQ

For another test, the target named is T28, 4H457-bN.
T28 chain: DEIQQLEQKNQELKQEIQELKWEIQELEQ

For the next test, the target named is T29, P8A-bH.
T29 chain: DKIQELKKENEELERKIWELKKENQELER

The target in the next test is T30, P9A-bH.
T30 chain: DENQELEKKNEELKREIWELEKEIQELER

For the next test, the target named is T31, P7A-bH.
T31 chain: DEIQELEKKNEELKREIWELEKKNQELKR

Regarding DEIQQLEQKIQELKQENQELEWENQELEQ [O3-bN], the interaction score with O8-bN was -0.285; in the test with O6-bN, -0.337; in the test with O7-bN, -1.23; with O9-bN, -0.842; with O5-bN, -0.619; with O3-bN, -0.142. The interaction score with O4-bN was found to be 2.41.
Turning to DENQQLEQKNQELKQKIQELKWKIQELKQ [O2-bN], the interaction score with O8-bN is 0.817; in the test with O6-bN, -1.5; with O7-bN, -0.634; with O2-bN, -0.646; in the test with O9-bN, 0.719; with O5-bN, -0.76. In addition, the interaction score in the test with O3-bN was -1.2; with O4-bN, -1.97.
Turning to DEIQELEKKNEELKREIWELEKKNQELKQ [P7bHq], the interaction score with P7bHq was -1.98; in the test with P8bHq it was 2.08; with P9bHq, 0.211.
For DKIQQLKQENQELEQEIQELKWKIQELKQ [4H2702-bN], the interaction score with 4H2702-bN is 1.44; in the test with 4H953-bN, -0.0124; in the test with 4H683-bN it was 0.0387; with 4H3010-bN, 2.05; with 4H3926-bN, 0.223; in the test with 4H855-bN, -1.49. Besides, the interaction score was 0.189 in the test with 4H797-bN; -0.128 in the test with 4H918-bN; -0.212 in the test with 4H575-bN; 1.31 with 4H968-bN; -0.588 with 4H3427-bN; -0.44 with 4H780-bN. Moreover, the interaction score with 4H4073-bN is 2.14; with 4H3112-bN it was -0.298; in the test with 4H754-bN it was -1.18; in the test with 4H346-bN, -0.668; with 4H457-bN, 1.25.
As for DKNQELKKEIEELERENWELEKKIQELKR [P6A-bH], the interaction score with P8A-bH was 0.924; with P9A-bH it was 0.983; with P7A-bH, 1.35.
